The supplement of paper PMC10065799, “High-throughput profiling of sequence recognition by tyrosine kinases and SH2 domains using bacterial peptide display” (eLife, 2023)

molecular target: SHP2-C SH2; assay: SH2 binding enrichment of the phosphorylated peptide, bacterial display (enrichment ratio); higher = better substrate or ligand; peptides without Tyr show the background
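Further: peptide library displayed on the E. coli surface as eCPX fusions, selected cells deep-sequenced, score is each peptide's frequency after selection divided by its frequency in the input.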

Row | Sequence | SH2 binding enrichment
1 | GLTSTYAGIRK [ROBO1_Y932] | 14.7
2 | SPGGDYAAMGA [ERBB3_Y1276_G1271S] | 0.487
3 | DTNIAYCLHPR [POMT1_Y581_W582C] | 0.744
4 | GCVSKYSGVFS [TUBGCP6_Y1624] | 0.906
5 | EADRKYEEVAR [TPM3_Y163] | 0.794
6 | QRALLYEDTLY [UNC13D_Y56_A59T] | 0.537
7 | IDDNEYAFLKA [HNF4A_Y286_YF] | 0.546
8 | DESEDYRDTVV [CNNM3_Y456] | 0.587
9 | FIGCIYLFLTK [GARS1_Y414_R412C_YF] | 1.71
10 | HLRAGYIIPLQ [GAA_Y822] | 3.2
11 | PVDVAYRHGYF [PLEC_Y2967_R2969H] | 0.701
12 | MSNFAYVKREV [SCN1A_Y1694] | 0.7
13 | HYGNNYRDVLQ [MACC1_Y803] | 1.79
14 | PVDTYYDSTRG [DYNC2H1_Y2231_M2227V] | 0.667
15 | ENEGTYVCIAT [ADAMTSL3_Y1365] | 0.6
16 | LQPNNYQFCGG [CSF1R_Y969] | 0.889
17 | KPMDTYYDSTR [DYNC2H1_Y2230] | 0.66

Row | Sequence | SH2 binding enrichment
18 | ADDSYYTVRSA [ZAP70_Y493_A495V] | 0.753
19 | QRRLVYYEGGA [RYR1_Y245] | 0.803
20 | CTTIHYSYMCN [TP53_Y234_N235S] | 6.33
21 | MNLLGYRQVRS [CHST4_Y359_H361Q] | 0.481
22 | KLFFHYDPKLC [INSR_Y457_N458D] | 0.709
23 | RNDRVYQPLRD [CD3D_Y149_Q147R] | 0.727
24 | FMLFQYLKQIE [RPAP3_Y569_D564Y_YF] | 1.48
25 | FSLIHYAGIVV [MYH7_Y582_D587V] | 2.77
26 | PVDGEYFTLQI [TP53_Y327_L323V] | 0.744
27 | ILDEAYVMASV [EGFR_Y764] | 0.632
28 | IDGLEYLHSQG [STK11_Y166] | 0.57
29 | DGNIDYAEFAK [MCFD2_Y138_Y135N] | 1.04
30 | YSSLGYPPPEG [ZSWIM4_Y87] | 16.1
31 | ATPKGYETDAS [OTC_Y223_P225T] | 0.596
32 | ECKLRYSRKEG [PTPN11_Y263_L262R] | 0.679
33 | DGMADYSDPSY [CDC5L_Y459] | 0.616

molecular target: Grb2 SH2 (UniProt P62993); assay: as above
Sequence (P62993 whole entry, looked up): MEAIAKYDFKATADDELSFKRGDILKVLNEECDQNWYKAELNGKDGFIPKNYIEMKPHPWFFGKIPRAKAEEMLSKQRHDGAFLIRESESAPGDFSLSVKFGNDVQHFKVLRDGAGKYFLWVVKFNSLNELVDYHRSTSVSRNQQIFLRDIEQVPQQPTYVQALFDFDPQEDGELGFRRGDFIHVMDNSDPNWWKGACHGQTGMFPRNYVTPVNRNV

Row | Sequence | SH2 binding enrichment
34 | GLTSTYAGIRK [ROBO1_Y932] | 0.895
35 | SPGGDYAAMGA [ERBB3_Y1276_G1271S] | 0.749
36 | DTNIAYCLHPR [POMT1_Y581_W582C] | 0.712
37 | GCVSKYSGVFS [TUBGCP6_Y1624] | 0.83
38 | EADRKYEEVAR [TPM3_Y163] | 1.08
39 | QRALLYEDTLY [UNC13D_Y56_A59T] | 0.62
40 | IDDNEYAFLKA [HNF4A_Y286_YF] | 0.79
41 | DESEDYRDTVV [CNNM3_Y456] | 0.901
42 | FIGCIYLFLTK [GARS1_Y414_R412C_YF] | 1.86
43 | HLRAGYIIPLQ [GAA_Y822] | 1.66
44 | PVDVAYRHGYF [PLEC_Y2967_R2969H] | 1.21
45 | MSNFAYVKREV [SCN1A_Y1694] | 0.797
46 | HYGNNYRDVLQ [MACC1_Y803] | 0.691
47 | PVDTYYDSTRG [DYNC2H1_Y2231_M2227V] | 1.08
48 | ENEGTYVCIAT [ADAMTSL3_Y1365] | 0.74
49 | LQPNNYQFCGG [CSF1R_Y969] | 1.24
50 | KPMDTYYDSTR [DYNC2H1_Y2230] | 0.903

Row | Sequence | SH2 binding enrichment
51 | ADDSYYTVRSA [ZAP70_Y493_A495V] | 0.733
52 | QRRLVYYEGGA [RYR1_Y245] | 1.17
53 | CTTIHYSYMCN [TP53_Y234_N235S] | 1.58
54 | MNLLGYRQVRS [CHST4_Y359_H361Q] | 0.686
55 | KLFFHYDPKLC [INSR_Y457_N458D] | 0.702
56 | RNDRVYQPLRD [CD3D_Y149_Q147R] | 0.845
57 | FMLFQYLKQIE [RPAP3_Y569_D564Y_YF] | 1.53
58 | FSLIHYAGIVV [MYH7_Y582_D587V] | 1.01
59 | PVDGEYFTLQI [TP53_Y327_L323V] | 0.785
60 | ILDEAYVMASV [EGFR_Y764] | 0.708
61 | IDGLEYLHSQG [STK11_Y166] | 0.779
62 | DGNIDYAEFAK [MCFD2_Y138_Y135N] | 0.801
63 | YSSLGYPPPEG [ZSWIM4_Y87] | 1.04
64 | ATPKGYETDAS [OTC_Y223_P225T] | 0.866
65 | ECKLRYSRKEG [PTPN11_Y263_L262R] | 0.746
66 | DGMADYSDPSY [CDC5L_Y459] | 0.833
